From PMC6098113, “A 2′FY-RNA Motif Defines an Aptamer for Ebolavirus Secreted Protein”
Like-named read-outs stand apart in the source and are kept apart here.

How the values were obtained:
[1] = molecular target: T1, EBOV sGP (soluble glycoprotein) (Zaire ebolavirus (EBOV), UniProt P60170 33-324); assay: filter binding; monomer basis; settings: protein: recombinant; tags: 6xHis; chain copies: 2; label: 32P; hairpins (Mfold)
[2] = molecular target: T1, EBOV sGP (soluble glycoprotein); settings: protein: recombinant; tags: 6xHis; chain copies: 2
[3] = molecular target: T1, EBOV sGP (soluble glycoprotein); assay: filter binding; settings: protein: recombinant, tags: 6xHis, chain copies: 2
[4] = molecular target: T1, EBOV sGP (soluble glycoprotein); assay: filter binding; up to 800 nM sGP; settings: protein: recombinant; tags: 6xHis; chain copies: 2; label: 32P; hairpins (Mfold)
[5] = molecular target: T2, SUDV sGP (Sudan virus (SUDV), UniProt Q7T9E0 33-324); assay: filter binding; monomer basis; settings: protein: commercial; chain copies: 2; label: 32P; hairpin
T2 sequence: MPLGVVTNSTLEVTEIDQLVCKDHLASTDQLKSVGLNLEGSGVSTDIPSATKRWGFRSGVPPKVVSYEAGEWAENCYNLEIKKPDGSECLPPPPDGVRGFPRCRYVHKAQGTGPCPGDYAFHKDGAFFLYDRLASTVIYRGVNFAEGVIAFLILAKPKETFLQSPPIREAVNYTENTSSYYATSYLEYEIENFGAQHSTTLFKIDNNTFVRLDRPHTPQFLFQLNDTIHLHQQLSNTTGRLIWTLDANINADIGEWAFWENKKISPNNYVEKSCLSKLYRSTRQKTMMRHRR

[6] = molecular target: T1, EBOV sGP (soluble glycoprotein); assay: filter binding; monomer basis; Fig S8 legend uses 50 nM; settings: protein: recombinant; tags: 6xHis; chain copies: 2; label: 32P; hairpin
[7] = molecular target: T3, alpha2-macroglobulin (UniProt P01023 24-1474); assay: filter binding; 205 nM to 5 uM alpha2-macroglobulin; Buffer A: 137 mM NaCl, 2.7 mM KCl, 10 mM Na2HPO4, 2 mM KH2PO4, 5 mM MgCl2, pH 7.4, RT (23-24 C), 30 min; settings: protein: commercial; label: 32P; hairpin
T3 sequence: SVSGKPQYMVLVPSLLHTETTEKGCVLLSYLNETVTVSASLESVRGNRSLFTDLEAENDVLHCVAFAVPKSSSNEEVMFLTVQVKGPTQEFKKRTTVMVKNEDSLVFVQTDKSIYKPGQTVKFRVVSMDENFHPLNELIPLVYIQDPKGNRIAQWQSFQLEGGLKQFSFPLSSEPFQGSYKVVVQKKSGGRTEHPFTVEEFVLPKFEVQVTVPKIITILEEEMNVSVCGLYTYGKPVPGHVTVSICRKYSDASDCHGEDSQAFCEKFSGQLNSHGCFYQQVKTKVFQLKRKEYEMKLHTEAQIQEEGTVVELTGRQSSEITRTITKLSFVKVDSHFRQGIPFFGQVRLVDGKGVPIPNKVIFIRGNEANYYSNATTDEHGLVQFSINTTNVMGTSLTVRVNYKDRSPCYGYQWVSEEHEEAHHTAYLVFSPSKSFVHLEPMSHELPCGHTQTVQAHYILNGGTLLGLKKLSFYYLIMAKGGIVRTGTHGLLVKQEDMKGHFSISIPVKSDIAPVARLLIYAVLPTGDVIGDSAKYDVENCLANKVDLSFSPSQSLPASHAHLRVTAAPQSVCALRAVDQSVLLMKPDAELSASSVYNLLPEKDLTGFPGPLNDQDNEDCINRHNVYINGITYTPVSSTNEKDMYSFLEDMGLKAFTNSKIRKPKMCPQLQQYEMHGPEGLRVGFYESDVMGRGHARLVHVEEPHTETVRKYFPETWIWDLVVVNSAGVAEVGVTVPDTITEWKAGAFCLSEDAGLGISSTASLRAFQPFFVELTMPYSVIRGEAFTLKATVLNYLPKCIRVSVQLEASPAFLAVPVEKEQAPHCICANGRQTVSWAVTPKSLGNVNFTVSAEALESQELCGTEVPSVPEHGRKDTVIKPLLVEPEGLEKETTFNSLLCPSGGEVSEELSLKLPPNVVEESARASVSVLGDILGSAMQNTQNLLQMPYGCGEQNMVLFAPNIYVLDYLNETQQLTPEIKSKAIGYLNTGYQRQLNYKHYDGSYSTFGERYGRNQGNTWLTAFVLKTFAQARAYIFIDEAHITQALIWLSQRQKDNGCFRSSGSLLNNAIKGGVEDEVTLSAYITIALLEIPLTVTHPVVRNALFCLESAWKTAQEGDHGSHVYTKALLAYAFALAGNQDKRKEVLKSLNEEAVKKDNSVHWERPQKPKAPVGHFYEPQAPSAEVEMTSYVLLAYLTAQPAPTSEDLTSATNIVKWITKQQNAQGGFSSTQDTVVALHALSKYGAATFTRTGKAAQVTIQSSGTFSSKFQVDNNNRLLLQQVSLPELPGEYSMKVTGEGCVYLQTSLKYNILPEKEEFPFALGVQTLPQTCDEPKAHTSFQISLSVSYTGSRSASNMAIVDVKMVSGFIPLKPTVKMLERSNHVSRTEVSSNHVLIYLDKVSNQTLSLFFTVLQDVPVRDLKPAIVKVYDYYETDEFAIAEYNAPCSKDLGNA

[8] = molecular target: fibrinogen (UniProt P02671;P02675;P02679 20-866;31-491;27-453); assay: filter binding; 250 nM to 4 uM fibrinogen; Buffer A: 137 mM NaCl, 2.7 mM KCl, 10 mM Na2HPO4, 2 mM KH2PO4, 5 mM MgCl2, pH 7.4, RT (23-24 C), 30 min; settings: protein: commercial; chain copies: 2;2;2; label: 32P; hairpin
Sequence of fibrinogen (P02671 20-866, chain 1 of 3): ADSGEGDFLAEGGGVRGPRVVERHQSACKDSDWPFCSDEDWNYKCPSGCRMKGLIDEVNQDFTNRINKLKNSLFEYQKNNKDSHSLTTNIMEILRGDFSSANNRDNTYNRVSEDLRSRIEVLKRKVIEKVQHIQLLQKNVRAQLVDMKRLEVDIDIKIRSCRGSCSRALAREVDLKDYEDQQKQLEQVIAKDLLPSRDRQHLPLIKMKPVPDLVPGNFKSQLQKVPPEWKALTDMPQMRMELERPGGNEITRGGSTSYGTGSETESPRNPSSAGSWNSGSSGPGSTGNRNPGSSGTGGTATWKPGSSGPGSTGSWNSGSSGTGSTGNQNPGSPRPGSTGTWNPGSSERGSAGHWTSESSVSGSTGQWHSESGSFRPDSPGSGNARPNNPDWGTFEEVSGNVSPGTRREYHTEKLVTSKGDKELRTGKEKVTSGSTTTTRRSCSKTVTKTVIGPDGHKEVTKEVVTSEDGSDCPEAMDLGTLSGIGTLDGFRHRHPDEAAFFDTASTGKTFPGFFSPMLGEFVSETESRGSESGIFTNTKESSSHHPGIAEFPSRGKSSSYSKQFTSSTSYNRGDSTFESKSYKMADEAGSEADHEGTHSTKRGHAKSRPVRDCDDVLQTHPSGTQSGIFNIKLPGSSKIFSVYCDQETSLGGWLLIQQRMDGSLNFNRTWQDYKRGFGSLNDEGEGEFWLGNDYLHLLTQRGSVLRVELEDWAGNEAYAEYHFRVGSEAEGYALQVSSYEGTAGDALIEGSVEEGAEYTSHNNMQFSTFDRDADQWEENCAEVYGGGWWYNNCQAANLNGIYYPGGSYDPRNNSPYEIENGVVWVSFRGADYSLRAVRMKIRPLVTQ
Sequence of fibrinogen (P02675 31-491, chain 2 of 3): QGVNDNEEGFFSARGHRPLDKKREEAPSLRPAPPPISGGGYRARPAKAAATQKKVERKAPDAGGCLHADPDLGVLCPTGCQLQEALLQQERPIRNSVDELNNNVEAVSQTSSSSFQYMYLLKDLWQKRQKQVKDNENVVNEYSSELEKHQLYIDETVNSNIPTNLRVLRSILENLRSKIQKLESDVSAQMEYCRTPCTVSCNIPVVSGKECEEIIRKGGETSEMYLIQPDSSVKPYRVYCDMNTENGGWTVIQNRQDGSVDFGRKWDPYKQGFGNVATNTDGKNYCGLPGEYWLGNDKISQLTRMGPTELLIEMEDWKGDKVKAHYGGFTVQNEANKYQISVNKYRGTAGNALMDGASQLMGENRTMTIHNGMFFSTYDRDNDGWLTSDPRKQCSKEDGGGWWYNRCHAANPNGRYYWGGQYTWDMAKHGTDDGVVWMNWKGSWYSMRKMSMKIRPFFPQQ
Sequence of fibrinogen (P02679 27-453, chain 3 of 3): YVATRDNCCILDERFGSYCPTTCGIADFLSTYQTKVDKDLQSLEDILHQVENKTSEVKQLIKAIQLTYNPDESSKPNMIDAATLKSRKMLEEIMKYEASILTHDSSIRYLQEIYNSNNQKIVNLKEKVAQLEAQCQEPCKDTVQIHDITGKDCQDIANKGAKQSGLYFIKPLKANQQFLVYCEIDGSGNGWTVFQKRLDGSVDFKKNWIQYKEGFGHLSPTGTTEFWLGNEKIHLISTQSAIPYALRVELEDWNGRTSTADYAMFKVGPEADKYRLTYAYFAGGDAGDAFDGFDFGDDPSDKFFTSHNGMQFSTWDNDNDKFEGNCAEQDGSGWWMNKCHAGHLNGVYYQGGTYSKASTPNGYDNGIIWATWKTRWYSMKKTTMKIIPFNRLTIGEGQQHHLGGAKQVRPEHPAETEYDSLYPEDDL

[9] = molecular target: T1, EBOV sGP (soluble glycoprotein); assay: filter binding; 50 and 500 nM sGP; better than 5183; settings: protein: recombinant; tags: 6xHis; chain copies: 2; label: 32P; central bulge of 5183 removed
[10] = molecular target: T1, EBOV sGP (soluble glycoprotein); assay: filter binding; 50 and 500 nM sGP; settings: protein: recombinant; tags: 6xHis; chain copies: 2; label: 32P; 3' stem loop of 5183
[11] = molecular target: T1, EBOV sGP (soluble glycoprotein); assay: competition; 100-fold excess competes with 39SGP1A; settings: protein: recombinant; tags: 6xHis; chain copies: 2; label: 32P (direct); hairpins (Mfold)
[12] = molecular target: Human serum albumin (Homo sapiens (Human), UniProt P02768 25-609); assay: filter; PBS + 5 mM MgCl2 pH 7.4; settings: label: 32P
Sequence of Human serum albumin (P02768 25-609): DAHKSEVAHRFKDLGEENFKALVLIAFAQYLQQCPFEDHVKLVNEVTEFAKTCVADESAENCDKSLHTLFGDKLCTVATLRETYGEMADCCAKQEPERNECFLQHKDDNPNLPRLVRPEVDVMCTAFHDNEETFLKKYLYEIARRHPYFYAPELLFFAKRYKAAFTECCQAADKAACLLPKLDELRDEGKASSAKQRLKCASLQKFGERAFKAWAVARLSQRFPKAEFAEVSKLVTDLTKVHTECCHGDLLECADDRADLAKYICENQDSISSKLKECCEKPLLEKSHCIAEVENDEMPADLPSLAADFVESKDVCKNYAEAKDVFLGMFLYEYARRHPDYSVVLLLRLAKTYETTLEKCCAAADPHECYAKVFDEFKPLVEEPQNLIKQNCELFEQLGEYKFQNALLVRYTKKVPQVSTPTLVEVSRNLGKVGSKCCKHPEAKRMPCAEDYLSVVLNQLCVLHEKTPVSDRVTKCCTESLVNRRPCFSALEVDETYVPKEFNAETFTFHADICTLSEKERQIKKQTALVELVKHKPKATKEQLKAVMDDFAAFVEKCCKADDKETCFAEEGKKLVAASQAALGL

T1 sequence (P60170 33-324): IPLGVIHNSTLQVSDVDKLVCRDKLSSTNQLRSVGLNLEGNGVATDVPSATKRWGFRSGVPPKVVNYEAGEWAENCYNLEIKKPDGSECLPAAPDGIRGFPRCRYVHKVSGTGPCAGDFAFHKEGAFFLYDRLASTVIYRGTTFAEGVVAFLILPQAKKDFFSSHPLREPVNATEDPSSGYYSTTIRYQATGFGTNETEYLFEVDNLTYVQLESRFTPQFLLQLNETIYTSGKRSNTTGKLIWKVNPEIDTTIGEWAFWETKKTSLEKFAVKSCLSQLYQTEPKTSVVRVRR

B1: 5183 2'FY-RNA (XNA)
RNA: GGGAGACAAGAAUAAACGCUCAAUUUUUUAUUGCAUUUUUCUUUGAGCGUCAUUGAUACCCUGUUUCCUUGAGCACUUCGACAGGAGGCUCACAACAGGC
modifications: 2'-F on all C and U; 2'-OH A and G
- Kd [1]: 54 nM

B2: 4797 2'FY-RNA (XNA)
RNA: GGGAGACAAGAAUAAACGCUCAAAGCAACACAACGAGAUUAAACAAUCUAUUGUUAACAUUAAACAACUAGGCCGAUUCGACAGGAGGCUCACAACAGGC
modifications: 2'-F on all C and U
- Kd [2]: ~500 nM

B3: 5183 2'OH RNA (structured_RNA)
RNA: B1 RNA
modifications: none (2'-OH)
- binding result ([3]; label: 32P, hairpins (Mfold)): no binding

B4: 2'FC-5183 (XNA)
RNA: B1 RNA
modifications: 2'-F on C only; U is 2'-OH
- binding result [4]: no binding

B5: 5189 2'FY-RNA (XNA)
RNA: GGGAGACAAGAAUAAACGCUCAAUUUUUUAUUGCAUUUUUCUUUGAGCGUCAUUGAUACCCUGUUUCCU
modifications: 2'-F on all C and U
- binding result ([3]; label: 32P): binds

B6: 39SGP1A (5199) 2'FY-RNA (XNA)
RNA: GGGCGCUCAAUUUUUUAUUGCAUUUUUCUUUGAGCGCCC
modifications: 2'-F on all C and U
- Kd [5]: 240 nM
- Kd [6]: 27 nM
- binding result [7]: no binding
- binding result [8]: no binding

B7: 5192 2'FY-RNA (XNA)
RNA: GGGAGACAUAAACGCUCAAUUUUUUAUUGCAUUUUUCUUUGAGCGUCAUUGUGUUUCCUUGAGCACUUCGACAGGAGGCUCACAACAGGC
modifications: 2'-F on all C and U
- binding result [9]: binds

B8: 5193 2'FY-RNA (XNA)
RNA: GGGAGACAAGAAUGAUACCCUGUUUCCUUGAGCUAUUCGACAGGAGGCUCACAACAGGC
modifications: 2'-F on all C and U
- binding result [10]: no binding

B9: 4789 2'FY-RNA (XNA)
RNA: GGGAGACAAGAAUAAACGCUCAAACGUAAUGCAGUCUGUGAGCUUCAGCAAGUAAAAUUAGCGCUGACCGACCCUGUUCGACAGGAGGCUCACAACAGGC
modifications: 2'-F on all C and U
- binding result [11]: binds

B10: 5179 2'FY-RNA (XNA)
RNA: GGGAGACAAGAAUAAACGCUCAAUCUUUUUAUUUUACUUUUUGUUGUAGAGCGCUUGUUUCUCUGAGUUGUAGCCAUUCGACAGGAGGCUCACAACAGGC
modifications: 2'-F on all C and U
- Kd ([3]; label: 32P (direct)): < 100 nM

B11: 5182 2'FY-RNA (XNA)
RNA: GGGAGACAAGAAUAAACGCUCAAGUCUUUAUUUUUACACUUUUAUUUUACCUUGAGCUUCUUGACCAACAGUGCGCUUCGACAGGAGGCUCACAACAGGC
modifications: 2'-F on all C and U
- Kd ([3]; label: 32P): < 100 nM

B12: 39SGP1A (5199) (ssRNA)
RNA: B6 RNA
modifications: 2'-F pyrimidines
- Kd [12]: > 68000 nM

B13: 5183 (ssRNA)
RNA: B1 RNA
modifications: 2'-F pyrimidines
- Kd [12]: 400 nM
